In US5972599:

Assays:
[1] = molecular target: T1, IL-4 (Homo sapiens) (UniProt P05112); test: filter
T1 sequence: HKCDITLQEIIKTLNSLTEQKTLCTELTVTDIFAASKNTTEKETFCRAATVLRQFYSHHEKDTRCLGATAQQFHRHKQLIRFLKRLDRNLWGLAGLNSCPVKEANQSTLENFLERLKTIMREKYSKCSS

[2] = molecular target: TNF-alpha (Homo sapiens) (UniProt P01375); test: competition; details: random RNA control, U937 cells
[3] = molecular target: TNF-alpha (Homo sapiens) (UniProt P01375); test: filter
[4] = molecular target: T2, TNF-alpha (Mus musculus) (UniProt P06804); test: filter; details: specificity control
T2 sequence: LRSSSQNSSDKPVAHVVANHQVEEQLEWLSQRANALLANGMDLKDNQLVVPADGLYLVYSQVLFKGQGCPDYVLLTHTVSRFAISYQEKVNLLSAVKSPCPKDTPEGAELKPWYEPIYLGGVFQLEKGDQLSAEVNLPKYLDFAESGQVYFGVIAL

[5] = molecular target: T3, TNF-beta (Homo sapiens) (UniProt P01374); test: filter; details: specificity control
T3 sequence: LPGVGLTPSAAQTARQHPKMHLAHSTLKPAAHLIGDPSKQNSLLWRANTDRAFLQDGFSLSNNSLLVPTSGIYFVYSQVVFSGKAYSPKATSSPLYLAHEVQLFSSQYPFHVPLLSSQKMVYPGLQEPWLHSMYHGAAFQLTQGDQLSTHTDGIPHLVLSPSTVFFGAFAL

[6] = molecular target: T4, RANTES (Homo sapiens) (UniProt P13501); test: filter
T4 sequence: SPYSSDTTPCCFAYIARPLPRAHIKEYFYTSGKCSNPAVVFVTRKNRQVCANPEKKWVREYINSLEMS

[7] = molecular target: T5, IFN-gamma (Homo sapiens) (UniProt P01579); test: filter
T5 sequence: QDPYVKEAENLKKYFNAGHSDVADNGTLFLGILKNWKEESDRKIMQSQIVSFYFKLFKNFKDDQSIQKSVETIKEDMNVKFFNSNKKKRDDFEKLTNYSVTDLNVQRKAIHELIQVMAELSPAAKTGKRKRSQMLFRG

[8] = molecular target: T6, IFN-gamma (Mus musculus) (UniProt P01580); test: filter; details: mouse protein
T6 sequence: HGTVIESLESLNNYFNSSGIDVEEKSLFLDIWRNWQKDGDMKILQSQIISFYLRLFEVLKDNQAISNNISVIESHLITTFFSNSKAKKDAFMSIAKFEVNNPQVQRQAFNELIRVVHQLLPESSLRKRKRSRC

[9] = 2'-F all C, 2'-NH2 all U, random pool
[10] = 2'-NH2 all C and U, random pool
[11] = 2'-F all C, 2'-NH2 all U, round 17 pool
[12] = 2'-F all C and U, round 17 pool

Sequence of TNF-alpha (Homo sapiens) (P01375 77-233): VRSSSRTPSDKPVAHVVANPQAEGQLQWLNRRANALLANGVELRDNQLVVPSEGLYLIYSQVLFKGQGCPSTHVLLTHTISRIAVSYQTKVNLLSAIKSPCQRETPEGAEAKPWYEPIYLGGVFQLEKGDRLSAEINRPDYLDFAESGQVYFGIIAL

With “GGGAGACAAGAAUAAACGCUCAANNNNNNNNNNNNNNNNNNNNNNNNNNNNNNNNNNNNNNNNUUCGACAGGAGGCUCACAACAGGC [40N8 random pool 2'F/NH2]” the Kd [1, 9] was > 20 µM.

“GGGAGACAAGAAUAAACGCUCAANNNNNNNNNNNNNNNNNNNNNNNNNNNNNNNNNNNNNNNNUUCGACAGGAGGCUCACAACAGGC [40N8 random pool 2'F]” was tested, and the Kd ([1]; 2'-F all C and U, random pool) was > 20 µM.

With “GGGAGACAAGAAUAAACGCUCAANNNNNNNNNNNNNNNNNNNNNNNNNNNNNNNNNNNNNNNNUUCGACAGGAGGCUCACAACAGGC [40N8 random pool 2'NH2]” the Kd [1, 10] was > 20 µM.

Sequence “GGGAGACAAGAAUAAACGCUCAANNNNNNNNNNNNNNNNNNNNNNNNNNNNNNNNNNNNNNNNUUCGACAGGAGGCUCACAACAGGC [IL-4 round 17 pool 2'F/NH2]” has a Kd [1, 11] of 0.055 µM.

“GGGAGACAAGAAUAAACGCUCAANNNNNNNNNNNNNNNNNNNNNNNNNNNNNNNNNNNNNNNNUUCGACAGGAGGCUCACAACAGGC [IL-4 round 17 pool 2'F]” was tested, and the Kd [1, 12] was 0.03 µM.

“GGGAGACAAGAAUAAACGCUCAANNNNNNNNNNNNNNNNNNNNNNNNNNNNNNNNNNNNNNNNUUCGACAGGAGGCUCACAACAGGC [IL-4 round 17 pool 2'NH2]” gave a Kd ([1]; 2'-NH2 all C and U, round 17 pool, high filter background, earlier round about 100 nM) of 1 µM.

With “GGGAGCUCAGAAUAAACGCUCAANNNNNNNNNNNNNNNNNNNNNNNNNNNNNNUUCGACAUGAGGCCCGGAUCCGGC [TNF random RNA]” the Ki [2] was > 1000 µM and the Kd ([3]; estimated, flat curves up to 10 uM protein) was > 1000 µM.

“GGGAGCUCAGAAUAAACGCUCAANNNNNNNNNNNNNNNNNNNNNNNNNNNNNNUUCGACAUGAGGCCCGGAUCCGGC [TNF round 6 C-SELEX pool]” gave a Kd ([3]; C-SELEX final pool) of 0.4 µM.

In the case of “GGGAGCUCAGAAUAAACGCUCAANNNNNNNNNNNNNNNNNNNNNNNNNNNNNNUUCGACAUGAGGCCCGGAUCCGGC [TNF round 23 A-SELEX pool]”, the Kd [4] is reported as > 1000 µM, the Kd ([3]; round 23A pool) is reported as 0.7 µM and the Kd [5] is reported as > 1000 µM.

“GGGAGGACGATGCGGNNNNNNNNNNNNNNNNNNNNNNNNNNNNNNNNNNNNNNNNCAGACGACTCGCCCGA [RANTES random ssDNA pool 40N7]” was tested, and the Kd ([6]; starting pool, 150 mM NaCl) was 3 µM.

“GGGAGGACGATGCGGNNNNNNNNNNNNNNNNNNNNNNNNNNNNNNNNNNNNNNNNCAGACGACTCGCCCGA [RANTES round 19 ssDNA pool]” showed a Kd ([6]; round 19, 150 mM NaCl, text says 20 nM) of 0.018 µM.

“GGGAGGACGAUGCGGNNNNNNNNNNNNNNNNNNNNNNNNNNNNNNNNNNNNNNNNCAGACGACUCGCCCGA [40N7 random pool 2'F/NH2]” was tested, and the Kd [7, 9] was > 0.7 µM.

In the case of “GGGAGGACGAUGCGGNNNNNNNNNNNNNNNNNNNNNNNNNNNNNNNNNNNNNNNNCAGACGACUCGCCCGA [40N7 random pool 2'F]”, the Kd ([7]; 2'-F all C and U, random pool) is reported as > 0.7 µM.

In the case of “GGGAGGACGAUGCGGNNNNNNNNNNNNNNNNNNNNNNNNNNNNNNNNNNNNNNNNCAGACGACUCGCCCGA [40N7 random pool 2'NH2]”, the Kd [7, 10] is reported as > 0.7 µM.

Sequence “GGGAGGACGAUGCGGNNNNNNNNNNNNNNNNNNNNNNNNNNNNNNNNNNNNNNNNCAGACGACUCGCCCGA [IFN-gamma round 17 pool 2'F/NH2]” has a Kd [7, 11] of 0.115 µM and a Kd ([8]; 2'-F all C, 2'-NH2 all U) of 0.175 µM.

In the case of “GGGAGGACGAUGCGGNNNNNNNNNNNNNNNNNNNNNNNNNNNNNNNNNNNNNNNNCAGACGACUCGCCCGA [IFN-gamma round 17 pool 2'F]”, the Kd [7, 12] is reported as 0.07 µM and the Kd ([8]; 2'-F all C and U) is reported as 0.41 µM.

“GGGAGGACGAUGCGGNNNNNNNNNNNNNNNNNNNNNNNNNNNNNNNNNNNNNNNNCAGACGACUCGCCCGA [IFN-gamma round 17 pool 2'NH2]” showed a Kd ([7]; 2'-NH2 all C and U, round 17 pool) of 0.02 µM and a Kd ([8]; 2'-NH2 all C and U) of 0.085 µM.
